B1: Tixagevimab Biosimilar (antibody, V domains shown)
VH: QMQLVQSGPEVKKPGTSVKVSCKASGFTFMSSAVQWVRQARGQRLEWIGWIVIGSGNTNYAQKFQERVTITRDMSTSTAYMELSSLRSEDTAVYYCAAPYCSSISCNDGFDIWGQGTMVTVSS
VL: not shown
B2: Imdevimab (antibody, V domains shown)
VH: QVQLVESGGGVVQPGRSLRLSCAASGFTFSNYAMYWVRQAPGKGLEWVAVISYDGSNKYYADSVKGRFTISRDNSKNTLYLQMNSLRTEDTAVYYCASGSDYGDYLLVYWGQGTLVTVSS
VL: QSALTQPASVSGSPGQSITISCTGTSSDVGGYNYVSWYQQHPGKAPKLMIYDVSKRPSGVSNRFSGSKSGNTASLTISGLQSEDEADYYCNSLTSISTWVFGGGTKLTVL
B3: Casirivimab (antibody, V domains shown)
VH: QVQLVESGGGLVKPGGSLRLSCAASGFTFSDYYMSWIRQAPGKGLEWVSYITYSGSTIYYADSVKGRFTISRDNAKSSLYLQMNSLRAEDTAVYYCARDRGTTMVPFDYWGQGTLVTVSS
VL: DIQMTQSPSSLSASVGDRVTITCQASQDITNYLNWYQQKPGKAPKLLIYAASNLETGVPSRFSGSGSGTDFTFTISGLQPEDIATYYCQQYDNLPLTFGGGTKVEIK

The assay addresses Wild type spike RBD (UniProt P0DTC2) (SARS-CoV-2, UniProt P0DTC2 319-541).
Regarding B1, binding was characterised by a dissociation constant (Kd) of 0.6 nM. Then B2, with 65 nM; and B3, with 0.8 nM.

(Values after article PMC9672333 (2022).)
